Source: patent publication US7662583B2, “Bioreactor containing cells expressing glycosyltransferase nucleic acids isolatable from Arabidopsis” (The University of York, priority 2003, dated 2010)

B1: UGT76C1: glycosyltransferase, FIG. 9, glucosylates cytokinins (protein, listed as Arabidopsis thaliana)
chain: MEKRNERQVILFPLPLQGCINPMLQLAKILYSRGFSITIIHTRFNAPKSSDHPLFTFLQIRDGLSESQTQSRDLLLQLTLLNNNCQIPFRECLAKLIKPSSDSGTEDRKISCVIDDSGWVFTQSVAESFNLPRFVLCAYKFSFFLGHFLVPQIRREGFLPVPDSEADDLVPEFPPLRKKDLSRIMGTSAQSKPLDAYLLKILDATKPASGIIVMSCKELDHDSLAESNKVFSIPIFPIGPFHIHDVPASSSSLLEPDQSCIPWLDMRETRSVVYVSLGSIASLNESDFLEIACGLRNTNQSFLWVVRPGSVHGRDWIESLPSGFMESLDGKGKIVRWAPQLDVLAHRATGGFLTHNGWNSTLESICEGVPMICLPCKWDQFVNARFISEVWRVGIHLEGRIERREIERAVIRLMVESKGEEIRGRIKVLRDEVRRSVKQGGSSYRSLDELVDRISIIIEPLVPT
B2: UGT76C2: glycosyltransferase, FIG. 10, glucosylates cytokinins (protein, listed as Arabidopsis thaliana)
chain: MEEKRNGLRVILFPLPLQGCINPMLQLANILHVRGFSITVIHTRFNAPKASSHPLFTFLQIPDGLSETEIQDGVMSLLAQINLNAESPFRDCLRKVLLESKESERVTCLIDDCGWLFTQSVSESLKLPRLVLCTFKATFFNAYPSLPLIRTKGYLPVSESEAEDSVPEFPPLQKRDLSKVFGEFGEKLDPFLHAVVETTIRSSGLIYMSCEELEKDSLTLSNEIFKVPVFAIGPFHSYFSASSSSLFTQDETCILWLDDQEDKSVIYVSLGSVVNITETEFLEIACGLSNSKQPFLWVVRPGSVLGAKWIEPLSEGLVSSLEEKGKIVKWAPQQEVLAHRATGGFLTHNGWNSTLESICEGVPMICLPGGWDQMLNSRFVSDIWKIGIHLEGRIEKKEIEKAVRVLMEESEGNKIRERMKVLKDEVEKSVKQGGSSFQSIETLANHILLL
B3: UGT85A1: glycosyltransferase, FIG. 12, glucosylates cytokinins (protein, listed as Arabidopsis thaliana)
chain: MGSQIIHNSQKPHVVCVPYPAQGHINPMMRVAKLLHARGFYVTFVNTVYNHNRFLRSRGSNALDGLPSFRFESIADGLPETDMDATQDITALCESTMKNCLAPFRELLQRINAGDNVPPVSCIVSDGCMSFTLDVAEELGVPEVLFWTTSGCAFLAYLHFYLFIEKGLCPLKDESYLTKEYLEDTVIDFIPTMKNVKLKDIPSFIRTTNPDDVMISFALRETERAKRASAIILNTFDDLEHDVVHAMQSILPPVYSVGPLHLLANREIEEGSEIGMMSSNLWKEEMECLDWLDTKTQNSVIYINFGSITVLSVKQLVEFAWGLAGSGKEFLWVIRPDLVAGEEAMVPPDFLMETKDRSMLASWCPQEKVLSHPAIGGFLTHCGWNSILESLSCGVPMVCWPFFADQQMNCKFCCDEWDVGIEIGGDVKREEVEAVVRELMDGEKGKKMREKAVEWQRLAEKATEHKLGSSVMNFETVVSKFLLGQKSQD
B4: UGT73C5: Arabidopsis recombinant glycosyltransferase, FIG. 11 (protein, listed as Arabidopsis thaliana)
chain: MVSETTKSSPLHFVLFPFMAQGHMIPMVDIARLLAQRGVIITIVTTPHNAARFKNVLNRAIESGLPINLVQVKFPYLEAGLQEGQENIDSLDTMERMIPFFKAVNFLEEPVQKLIEEMNPRPSCLISDFCLPYTSKIAKKFNIPKILFHGMGCFCLLCMHVLRKNREILDNLKSDKELFTVPDFPDRVEFTRTQVPVETYVPAGDWKDIFDGMVEANETSYGVIVNSFQELEPAYAKDYKEVRSGKAWTIGPVSLCNKVGADKAERGNKSDIDQDECLKWLDSKKHGSVLYVCLGSICNLPLSQLKELGLGLEESQRPFIWVIRGWEKYKELVEWFSESGFEDRIQDRGLLIKGWSPQMLILSHPSVGGFLTHCGWNSTLEGITAGLPLLTWPLFADQFCNEKLVVEVLKAGVRSGVEQPMKWGEEEKIGVLVDKEGVKKAVEELMGESDDAKERRRRAKELGDSAHKAVEEGGSSHSNISFLLQDIMELAEPNN
B5: UGT78D2: Arabidopsis recombinant glycosyltransferase, FIG. 5 (protein, listed as Arabidopsis thaliana)
chain: MTKPSDPTRDSHVAVLAFPFGTHAAPLLTVTRRLASASPSTVFSFFNTAQSNSSLFSSGDEADRPANIRVYDIADGVPEGYVFSGRPQEAIELFLQAAPENFRREIAKAETEVGTEVKCLMTDAFFWFAADMATEINASWIAFWTAGANSLSAHLYTDLIRETIGVKEVGERMEETIGVISGMEKIRVKDTPEGVVFGNLDSVFSKMLHQMGLALPRATAVFINSFEDLDPTLTNNLRSRFKRYLNIGPLGLLSSTLQQLVQDPHGCLAWMEKRSSGSVAYISFGTVMTPPPGELAAIAEGLESSKVPFVWSLKEKSLVQLPKGFLDRTREQGIVVPWAPQVELLKHEATGVFVTHCGWNSVLESVSGGVPMICRPFFGDQRLNGRAVEVVWEIGMTIINGVFTKDGFEKCLDKVLVQDDGKKMKCNAKKLKELAYEAVSSKGRSSENFRGLLDAVVNII

Legend:
[1] = UGT enzyme reaction with cytokinins; assay type: biochemical; settings: for Cytokinin products formed by the UGTs: 7-N-glucoside / Cytokinin products formed by the UGTs: 9-N-glucoside: cytokinins, 0.5 mM, 30° C., 3 h
Protocol: The assay mix (200 μl) contained 2 μg of recombinant protein, 100 mM Tris-HCl, pH 8.0, 5 mM UDP-glucose 0.5 mM ATP, 50 mM MgCl2, and 0.5 mM of cytokinin. The reaction was carried out at 30° C. for 3 h, and was quick-frozen and stored at −20° C. prior to the reverse-phase HPLC analysis
Reverse-phase HPLC (SpectraSYSTEM HPLC systems and UV6000LP Photodiode Array Detector, ThermoQuest) analysis was carried using a Columbus 5μ C18 column (250×4.60 mm, PHENOMENEX). Quercetin glucosides were separated from the aglycone by a linear gradient of 10-75% acetonitrile in H2O (all solution contained 0.1% trifluoroacetic acid) at 1 ml/mm over 20 mm and monitored at 370 nm. Cytokinin glucosides were separated from their aglycone by a liner gradient of 10-100% methanol in H2O (for N6-isopentenyladenine (iP), N6-benzyladenine and kinetin) or 10-60% methanol in H2O (for trans-zeatin and dihydrozeatin) at 1 ml/min over 20 mm. All solution contained 0.25% acetic acid and 0.04% triethylamine, trifluoroacetic acid. The separation was monitored at 206 nm and 252 nm. The identity of the products was confirmed by comparison with authentic gluco sides.
• 1. 7-N-glucoside (76C1, 76C2) • 2. 9-N-glucoside (76C1, 76C2) • 3. O-glucoside (only apply to trans-Zeatin and dihydrozeatin) (85A1 for trans-Zeatin; 85A1 and 73C5 for dihydrozeatin) Large Scale Fermentation

[2] = UGT enzyme reaction with quercetin (recombinant UGTs, HPLC); assay type: biochemical, Arabidopsis; settings: 0.5 mM quercetin, 5 mM UDP-glucose, 30° C.; for Specific activity (nkat/mg protein) 3-O-glc: quercetin glucosylated at 3-OH; for Specific activity (nkat/mg protein) 3′-O-glc: quercetin glucosylated at 3′-OH; for Specific activity (nkat/mg protein) 4′-O-glc: quercetin glucosylated at 4′-OH; for Specific activity (nkat/mg protein) 7-O-glc: quercetin glucosylated at 7-OH
Method in brief: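 Recombinant Arabidopsis UGTs (2 μg) incubated with 0.5 mM quercetin and 5 mM UDP-glucose in 100 mM Tris-HCl pH 7.0 at 30 °C for 1 h. Quercetin glucosides separated from aglycone by reverse-phase C18 HPLC (acetonitrile gradient, 0.1% TFA), detected at 370 nm.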

[3] = Whole-cell biocatalyst assay, E. coli expressing UGT in culture medium; assay type: cell-based; settings: E. coli, 2x YT medium, 0.1 mM IPTG, 0.1 mM quercetin, 24 h, no added UDP-glucose
Protocol: FIG. 14 Whole-cell biocatalyst assay using UGT71C1. E. coli cells expressing recombinant were used in the biocatalyst assay. After incubation with 0.1 mM quercetin and 0.1 mM IPTG, cells were collected by centrifugation, extracted with 80% methanol and both the cell extracts (pellet) and culture medium (supernatant) were analysed using HPLC. (A) Changes in the combined amounts of aglycone/glucoside over a time-course of 0-48 h. (B) Changes in the level of different glucosides and aglycone in the culture medium over the same time-course.
Using the foundation established in the preceding example, we went on to investigate the potential of E. coli expressing plant UGTs as whole-cell biocatalysts to synthesise glucosides of quercetin. In the first instance, we used E. coli grown in 75 ml of standard culture medium. […] Table 2 describes results in which 7 different UGTs are expressed in E. coli and the identity and quantity of different glucosides recovered in the medium were analysed by HPLC. […] There was considerable variation in the level of different glucosides synthesised by the cells, although even under these non-optimised conditions, each of the four monoglucosides and two di-O-glucosides could be formed.

| Molecule | Cytokinin products formed by the UGTs: 7-N-glucoside [1] | Cytokinin products formed by the UGTs: 9-N-glucoside [1] | Cytokinin products formed by the UGTs: O-glucoside ([1]; substrate dihydrozeatin) | Cytokinin products formed by the UGTs: O-glucoside ([1]; substrate trans-Zeatin) | Specific activity (nkat/mg protein) 3-O-glc [2] | Specific activity (nkat/mg protein) 3′-O-glc [2] | Specific activity (nkat/mg protein) 4′-O-glc [2] | Specific activity (nkat/mg protein) 7-O-glc [2] | Culture medium (μg/ml in supernatant) 3-O-glc [3] [µg/mL] |
| --- | --- | --- | --- | --- | --- | --- | --- | --- | --- |
| B1 | 7-N-glucoside | 9-N-glucoside | – | – | – | – | – | – | – |
| B2 | 7-N-glucoside | 9-N-glucoside | – | – | – | – | – | – | – |
| B3 | – | – | O-glucoside | O-glucoside | – | – | – | – | – |
| B4 | – | – | O-glucoside | – | — (Activity lower than 0.02 nkat/mg protein has been considered as trace activity and is not shown in the Table.) | — (Activity lower than 0.02 nkat/mg protein has been considered as trace activity and is not shown in the Table.) | 0.25 nkat/mg protein | 0.11 nkat/mg protein | – |
| B5 | – | – | – | – | 31.60 nkat/mg protein | — (Activity lower than 0.02 nkat/mg protein has been considered as trace activity and is not shown in the Table.) | — (Activity lower than 0.02 nkat/mg protein has been considered as trace activity and is not shown in the Table.) | — (Activity lower than 0.02 nkat/mg protein has been considered as trace activity and is not shown in the Table.) | 6.83 |
